The values that follow come from patent publication US20090136510A1 (Eli Lilly, published 2009).

For assay [1], the target named is T1, recombinant human RON protein (rh-RON protein, R&D Systems; recombinant human MSPR) (human, UniProt Q04912 25-571).
T1 construct: Bought soluble recombinant protein; also called rhu-RON protein; rh-MSPR; not shown: His tag on the recombinant protein
T1 sequence (looked up): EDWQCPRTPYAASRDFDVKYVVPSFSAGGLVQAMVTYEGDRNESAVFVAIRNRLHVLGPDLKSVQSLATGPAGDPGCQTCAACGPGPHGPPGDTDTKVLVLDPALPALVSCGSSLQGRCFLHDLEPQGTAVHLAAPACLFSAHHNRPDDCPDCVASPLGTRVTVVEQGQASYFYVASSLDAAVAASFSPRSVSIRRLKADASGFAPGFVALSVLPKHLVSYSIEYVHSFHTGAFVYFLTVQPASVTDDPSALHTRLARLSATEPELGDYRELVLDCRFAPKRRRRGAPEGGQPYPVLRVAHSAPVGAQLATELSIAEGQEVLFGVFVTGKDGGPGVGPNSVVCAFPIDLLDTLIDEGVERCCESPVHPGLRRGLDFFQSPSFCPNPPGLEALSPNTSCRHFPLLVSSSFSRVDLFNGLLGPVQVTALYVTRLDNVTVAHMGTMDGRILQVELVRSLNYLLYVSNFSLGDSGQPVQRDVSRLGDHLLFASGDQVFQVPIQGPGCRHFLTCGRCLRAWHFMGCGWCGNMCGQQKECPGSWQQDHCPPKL
Put plainly: ELISA, blocking of MSP/RON interaction; ligand MSP. (ELISA stands for enzyme-linked immunosorbent assay.)

The target in assay [2] is T1, recombinant human RON protein (rh-RON …). The experiment in a line: ELISA, receptor immobilised on the plate (given as ED50). On the procedure:
The ability of the anti-RON antibodies, RON6 and RON8, to bind to recombinant human RON receptor and to block the MSP/RON interaction were measured using ELISA. […] Using the same ELISA format, the two antibodies were tested for their ability to block MSP/RON interactions. The measured IC₅₀ values were 46 pM for RON6 and 62 pM for RON8.

Assay [3] shares this target. Put plainly: blocking ELISA: serially diluted RON8 pre-incubated with His-tagged recombinant human RON (rh-MSPR), added to plate-immobilised recombinant human MSP (the blocked ligand); bound RON detected with anti-His-tag HRP, absorbance 450 nm. As for the experimental part: ELISA to Detect RON8 Blocking of MSP Binding to RON: ELISA plates were coated with 100 ng/well carrier-free MSP (R&D Systems) overnight at 4° C. on a rocker. The plate was washed once with 0.2% PBS/T and blocked for 2 hours at 37° C. with 150 μL/well 3% milk. A 15 μg/mL dilution of RON8 was prepared and serially diluted across another ELISA plate. To the RON8, was added 100 ng/well recombinant human MSPR (R&D Systems). The RON8/rh-MSPR complex was allowed to form for 2 hours at room temperature on a rocker. Next, the MSP-coated ELISA plate was washed once with 0.2% PBS/T and 100 μL of the RON8/rh-MSPR complex were added per well. After a 1.5-hour incubation at room temperature, the plate was washed five times with 0.2% PBS/T and incubated for 1 hour at room temperature with a 1:2,000 dilution of anti-His-tag HRP antibody (Sigma), which recognizes a His tag on the recombinant human MSPR protein. The plate was washed five times with 0.2% PBS/T and 100-AL substrate was added per well until a yellow color developed. The reaction was stopped with 50 μL of 1N H₂SO4 and the absorbance at 450 nm determined with a standard plate reader. The results of which are illustrated by FIG. 6A depict the solid-phase blocking characteristic of RON8. The ELISA data determined the IC50 value of RON8 needed to block the interaction of recombinant human RON protein to immobilized recombinant human MSP.

Assay [4] deals with T2, Recombinant RON-Fc (UniProt Q04912 25-957, limits assumed).
T2 construct: Immobilised on the BIAcore chip; also called RON proteins; not shown: Fc part
T2 sequence (looked up): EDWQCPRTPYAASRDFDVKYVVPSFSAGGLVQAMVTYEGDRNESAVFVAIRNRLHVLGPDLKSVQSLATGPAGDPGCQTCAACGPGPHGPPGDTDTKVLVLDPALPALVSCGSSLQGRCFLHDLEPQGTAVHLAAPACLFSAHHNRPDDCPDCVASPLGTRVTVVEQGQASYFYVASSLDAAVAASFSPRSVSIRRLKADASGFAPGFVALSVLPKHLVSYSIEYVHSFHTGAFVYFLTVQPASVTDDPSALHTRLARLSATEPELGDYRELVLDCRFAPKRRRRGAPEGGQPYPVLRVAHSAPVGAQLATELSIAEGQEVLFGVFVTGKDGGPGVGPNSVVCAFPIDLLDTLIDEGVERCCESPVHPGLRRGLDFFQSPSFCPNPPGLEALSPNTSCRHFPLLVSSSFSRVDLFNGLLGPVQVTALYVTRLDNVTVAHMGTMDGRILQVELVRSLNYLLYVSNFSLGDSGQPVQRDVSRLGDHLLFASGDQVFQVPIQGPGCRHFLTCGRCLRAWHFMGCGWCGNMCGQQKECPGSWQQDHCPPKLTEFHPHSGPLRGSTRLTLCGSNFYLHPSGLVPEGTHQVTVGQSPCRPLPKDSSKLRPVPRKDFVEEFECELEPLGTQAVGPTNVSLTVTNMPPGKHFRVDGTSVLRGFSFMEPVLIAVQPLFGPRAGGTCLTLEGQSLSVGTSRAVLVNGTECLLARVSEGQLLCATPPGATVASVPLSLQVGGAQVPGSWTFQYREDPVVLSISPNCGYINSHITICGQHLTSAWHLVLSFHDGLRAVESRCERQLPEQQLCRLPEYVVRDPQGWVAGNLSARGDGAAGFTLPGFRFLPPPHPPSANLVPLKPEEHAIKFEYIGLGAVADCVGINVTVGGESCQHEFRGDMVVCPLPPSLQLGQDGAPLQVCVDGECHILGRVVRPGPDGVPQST
The experiment in a line: SPR (BIACORE 3000), RON-Fc immobilised, antibody injected; BIACORE 3000, RON-Fc immobilized. On the procedure: BIAcore Analysis. The binding kinetics of the antibodies to the RON proteins was determined by using a BIACORE 3000 (BIAcore, Piscataway, N.J.). Recombinant RON-Fc was immobilized onto a sensor chip, and antibody was injected at various concentrations. Sensorgrams were obtained and evaluated using BIA Evaluation 2.0 software to determine rate constants. The affinity constant, KD, was calculated from the ratio of the rate constants Koff/Kₒₙ. The “Kₒₙ, M⁻¹.S⁻¹” and “Koff, S⁻¹” rates of the interaction were used to determine the affinity (Kd, M) of the antibody/receptor interaction. […] For RON8 they were: 3.2e-11, 6.1e6 and 2.0e-4
A general note: In SPR one partner is held on a chip, and binding of the other changes the refractive index at the surface.

The target in assay [5] is T2, Recombinant RON-Fc. The experiment in a line: method and RON form not stated at this place; clone-selection value of paragraph 178; method and RON form not stated.
The target of assay [6] is T2, Recombinant RON-Fc. The experiment in a line: comparison of KD values; reference RON1.

B1: RON8 antibody (human anti-RON monoclonal antibody) (antibody, human IgG1, kappa, V domains shown)
VH: EVQLVESGGGLVQPGGSLRLSCAASGFTFSSYLMTWVRQAPGKGLEWVANIKQDGSEKYYVDSVKGRFTISRDNAKNSLNLQMNSLRAEDTAVYYCTRDGYSSGRHYGMDVWGQGTTVIVSS
VL: EIVLTQSPATLSLSPGERATLSCRASQSVSRYLAWYQQKPGQAPRLLIYDASNRATGIPARFSGSGSGTDFTLTISSLEPEDFAVYYCQQRSNWPRTFGQGTKVEIKR
notes: Fully human IgG from HuMAb mice
A word on the IC50: it is the concentration that inhibits the measured activity by half. Broadly, the EC50 is the concentration giving half of the maximal effect. Usually Kd stands for a measure of binding affinity in units of concentration. As usually defined, the koff is a measure of how fast the partners let go of each other. Usually kon stands for a measure of how fast the partners come together. B1: the concentration for half-maximal inhibition (IC50) in assay [1] amounted to 0.062 nM. The concentration for a half-maximal effect (EC50) in assay [2] was 2.1 pM. Further, in assay [3], the IC50 amounted to 0.473 nM and the “IC50 (read off the curve)” value was approximately 500 pM. In addition, in the assay with Recombinant RON-Fc [4], the Kd is 0.032 nM, the off-rate constant (koff) stood at 0.0002 s⁻¹ and the kon is 6.1e+06 M⁻¹ s⁻¹. Besides, the Kd with Recombinant RON-Fc [5] is 0.023 nM. In the assay with Recombinant RON-Fc [6], the “fold greater affinity than RON1” value was found to be 100 fold.

B2: RON6 antibody (human anti-RON monoclonal antibody) (antibody, human IgG1, kappa, V domains shown)
VH: QVQLVQSGPEVKKSGSSVKVSCKASGGTFSSDAITWVRQAPGQGLEWMGGIIPILGMANYAQKFQGRVTITADKSTNTAYMELSSLRSEDTAVYFCARVADYYGLGTYYWYFDLWGRGTLVTVSS
VL: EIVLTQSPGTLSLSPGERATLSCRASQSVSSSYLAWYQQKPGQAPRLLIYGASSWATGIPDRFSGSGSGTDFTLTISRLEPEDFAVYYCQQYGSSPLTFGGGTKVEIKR
notes: as for B1
As for B2, in assay [1], the IC50 worked out at 0.046 nM. In addition, the concentration giving a half-maximal response (EC50) in assay [2] is 4.2 pM. Moreover, in the assay with Recombinant RON-Fc [4], the Kd turned out to be 0.041 nM, the koff was 8.6e-05 s⁻¹ and the kon was found to be 2.2e+06 M⁻¹ s⁻¹. Also, in the assay with Recombinant RON-Fc [5], the Kd was found to be 0.045 nM. Further, the “fold greater affinity than RON1” value with Recombinant RON-Fc [6] worked out at 100 fold.
